The record followed here is the nanobody polyreactivity screen of Harvey et al. (2022).

A short description of the series: yeast display, Sf9 membrane polyspecificity reagent, FACS + sequencing; frameworks hold sequencing errors. Summed up:
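Galactose induction of a Saccharomyces cerevisiae BJ5465 synthetic nanobody display library ran 36–48 hours. The cells were then stained for 1 hour at 4 °C with 10% biotinylated, detergent-solubilized Sf9 membrane reagent, pulled down on streptavidin microbeads and FACS-sorted into low and high (top ~1%) gates on expression and reagent-binding fluorescence. Labels for polyreactivity follow the gate of origin.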
Turning to “QVQLVESGGGLVQAGGSLRLSCAASGLIFSGYAMGWYRQAPGKERELVAAISRGGGRTSYADSVKGRFTISRDNAKNTVYLQMNSLKPEDTAVYYCAKDPRYLRYEHWGQGSQVTVSS”, the “polyreactivity (PSR sort gate)” value is on record as “high polyreactivity”.
As for “QVQLVESGRGLVQAGGSLRLSCAASGSIFYYLAKGWYRQAPGKERELVAVIDFSGASTSYADSVKGRFTISRDNAKNTVYLQMNSLKPEDTAVYYCAADRFRRKVRVDYWGQGTQVTVSS”, the “polyreactivity (PSR sort gate)” value is listed as “low polyreactivity”.
Turning to “QVQLVESGGGLVQAGGSLRLSCAASGSILTRNAMGWYRQAPAKEREFVARITYSGGRTYYADSVKGRFTISRDNAKNTVYLQMNSLKPEDTAVYYCAKTDRYSLGYWGQGTQVTVSS”, the “polyreactivity (PSR sort gate)” value is listed as “low polyreactivity”.
For the sequence “QVQLVESGGGLVQAGGSLRLSCAASGITFRYYAMGWYRQAPGKERELVAVISTSGGSTYYADSVKGRFTISRDNAKNTVYLQMNSLKPEDTAVYYCAARYTYWGLLRYDYWGQGTQVTVSS”, the “polyreactivity (PSR sort gate)” value is “high polyreactivity”.
For the sequence “QVQLVESGGGLVQAGGSLRLSCAPSGNTFWDNAMGWYRQAPGKERELVAAIRWSTGSTHYADSVKGRFTISRDNAKNTVYLQMNSVKPEDTAVYYCDATDYYYYRDKYYGYDYWGQGNQVTVSS”, the “polyreactivity (PSR sort gate)” value is on record as “low polyreactivity”.
Under “QVQLVESGGGLVQAGGSLRLSCAASGRTFVVYAMGWYRQAPGKERELVAAISGRGGRTYYADSVKGRFTISRDNAKNTVYLQMNSLKPEETAVYYCATRSSVPKRFTRYGYWGHGTQVTVSS” stands “high polyreactivity”; under “QVQLVESGGGLVQAGGSLRLSCAASGITFYSNAMGWYRQAPGKERELVATITRGGSTYYADSVKGRFTISRDNAKNTVYLQMNSLKPEDTAVYYCAADYSYRGREYGYWGQVTQVTVSS”, “low polyreactivity”; under “QVHLVESGGGLVQAGGSLRLSCAASGSTVTLYAMGWYRQAPGKERELVASITWSGSTYADSVKGRFTISRDNAKNTVYLQMNSLKPEDTAVYYCNTDPRSVVGWYDYWGQGTQVTVSS”, “low polyreactivity”.
Under “QVQLVESGGGLVQAGGSLRLSCAASGSTFSYNAMVWYRQAPRKERELVAAISRRGDNTYYADSVKGRFTISRDNAKNTVYLQMYSLKPEDTAVYYCAAVGYFVKQYAPRYGYWGHGTQVTVSS” stands “low polyreactivity”; under “QVQLVESGGGLVQAGGSLRLICAASRSNFFPYAMGWYRQAPGKERELVDTISGSTGRTYYADSVKGRFTISRDNAKNTVYLQMNSLKPQDTAVYYCATSVGYYLAPIKYDYWGQRTQVTVSS”, “low polyreactivity”; under “QVQLVESGGGLVQAGGSLRLSCAASGSTIVIYTMGWYRQAPGKERELVAAISQSGGRTYYADSVKGRFTISRDNSKNTVYLQMNSLKPEDTAVYYCAATWGKHYGYWGQGTQVTVSS”, “high polyreactivity”.
In the case of “QVQLVESGGGLVQAGGSLRLSCAASGSTFSSYAMGWYRQAPGKERELVARITSGGSTYYADSVKGRFTISRDNAKNTVYSQMNSLKPEDTAVYYCAARGYYYRSRVSQFKYDYWGQGTQVTVSS” it was “high polyreactivity”; in that of “QVQLVESGGGLVQAGGSLRLSCAASGSTFTRNAMGWYRQAPGKERELVARISRSGGSTYYADSVKGRFTISRDNAKNSVYLQMNSLKPEDTAVYDCNKDWYPRYPYVKGERDYWGEGTQVTVSS”, “high polyreactivity”.
For “QVQLVESGGGLVQAGGSLRLSCAASGSTFFKNTMGWYRQAPGKEREFVAAIRWSTSRTYYADSVKGRFTISRDNAKYTVYLQMTSLKPEDTAVYYCNAGTSLSRRYPEDYYWGQGTQVTVSS”, the “polyreactivity (PSR sort gate)” value is “high polyreactivity”.
In the case of “QVQLVESGGGLVQAGGSLRLSCAASGSIFYLYAMGWYRQAPGKERELVATISLSSGSTYADSVKGRFTISRDNAKNTVYLQMNSLKPDDTAVYYCAKDLSRWGYNEYDYWGQGTQVTLSS” it was “low polyreactivity”.
On to “QVQLVESGGGLVQAGGSLRLSCAASGLIFYKNAMAWYRQAPGKERELVAAIDWSSGSTYYADSVKGRFTISRDNAKNTVYLQMNSLIPEDTAVYYCAAEYVHHASGDFRTLYYYWGQGTQVTVSS”, for which the “polyreactivity (PSR sort gate)” value is reported as “low polyreactivity”.
Under “QVLLVDSGGGLVHAGGIHRLSCHASVGIFSWYDMGLYRQAPGKERELVAAISWSGGSTYYAYSVKGRFTISRDNAKNTVYLQMNSLKPEDTAVYYCAAYTADYYDYWGQGTQVTVSS” stands “high polyreactivity”; under “QVQHVESGGGLVQAGGSLRLSCAASGRIFSFYVMGWYRQAPGKERELVAVIRKNGGSTYYADSVKGRFTISRDNAKNTVYLQMNSLKPEDTAVYYCTARSVPRYGYWGLGTQVTVSS”, “high polyreactivity”.
Under “QVQLVESGGGLVQAGGSLRLSCAASGYTFDYYAMGWYRQAPGKERELVAAIRRGGSTYYADSVKGRFTISRDNAKNTVYLQMNSLKPEDTAVYYCAAVIYRDGTIYDYWGQGTQVTVSS” stands “high polyreactivity”; under “QVQLVESGGGLVQAGGSLRLSCAASGFIFSNNDRGLYRQAPGKDREVVAVINGGGSTYYADSVKASFTISRDNAKNTVFLQMNSLKPEDTAVYYCARKSWPKERRVDPGYDYWGQGTKVTVSS”, “low polyreactivity”.
In the case of “QVQLVESGGGLVQAGGSLRLSCAASGRIFEKYAMRWYREAPGKERELVAAMTRSGGRTYYADSVKGRFTISRDNAKNTVYLQMNSQKPEDTAVYYCAARYVSRFDWGQGTQVTVSS” it was “high polyreactivity”; in that of “QVQLVESGGGLVQAGGSLRLSCAASGSTFTINAMGWYRQAPGKERELVAAISRSGVRTFYADSVKGRFTNSRDNAKNTVYLQRNSLKPEDTAVYYCAKQTYRVTTDEGDYWGQGTQVTVSS”, “high polyreactivity”; in that of “QVQLVESGGGLVQAGGSLRLSCAASGSTFYSYAMGWYRQAPGKERELVAAITKGGGSTYYADSVKGRFTISRDNAKNTVYLQMNSLIPEDTAVYYCAAPGLYWYYTRSVYDYWGQGTQVTVSS”, “high polyreactivity”.
For “QVQLVESGGGLVQAGGSLRLSCAASGRIFGGYTMGWYRQAPGKEREFVAAITSSGGSTYYADSVKGRFTISRDNAKNTVYLQMYSLKPEETAVYYCAVDDYYYDYDYWGQGTQVTVSS”, the “polyreactivity (PSR sort gate)” value was “low polyreactivity”.
For the sequence “QVQLVESGGGLVQAGGSLRLSCAASGSISGIYAMGWYRQAPGKERELVAAISRGGSTNYADSVKGRFTISRDNAKNTVYLQMNSLKPEDTAVYYCAARTAYYPYRQRYYYWGQGTQVTVSS”, the “polyreactivity (PSR sort gate)” value is “high polyreactivity”.
For “QVHLVESGGGLVQAGGSLRLICAASGYIFPYYSMGWYRQAPGKERELVAGITTDGSSTYYADSVKGRFTISRDNAKKTVYLQMNSLKPEDTAVYYCYGYPGYTWGWYDFWGQGSQVTVSS”, the “polyreactivity (PSR sort gate)” value was “low polyreactivity”.
Consider “QVQLVESGGGLVQAGGSLRLSCAASGSIFYYYAMGWYRQAPGKERELVASISTDGSTYADSVKGRFTISRDNAKNTVYLQMNSLKPEDTAVYYCNADTRGEYTYVSWYDYWGQGTQVTVSS”, for which the “polyreactivity (PSR sort gate)” value is listed as “low polyreactivity”.
In the case of “QVQLVESGGGLVQAGGSLSLSCAASGITFNIYVMGWYRQAPGKERELVAAITDSGGTTYYADSVKGRFTISRDNAKNTVYLQMNSLKPEDTAVYYCAAEPFYSWWWWGDYWGQGTQVTVSS”, the “polyreactivity (PSR sort gate)” value is reported as “high polyreactivity”.
Regarding “QVQLVESGGGLVQAGGSLRLSCAASGRTFINNAMGWYRQAPGKERELVAAISWDGGRTYYADSVKGRFTISRDNAKNTVYLQMNSLKPEDTAVYYCNAQPNYAYHGEDDYWGQGTQVTVSS”, the “polyreactivity (PSR sort gate)” value is “high polyreactivity”.
With “QVQLVESGGGLVQAGGSLRLSCAASGSTIRSYAMGWYRQATRKERELVARIAYSSGRTYYADSVKGRFTISRDNAKNTVYLQMNSLKPEDTAVYYCAVRGYGYGYDYWGQGTQVTVSS”, the “polyreactivity (PSR sort gate)” value is given as “high polyreactivity”.
As to “QVQLVESGGGLVQAGGSLRLSCAASGSIFFLYAMGWSRQAPGKEWELVAAISRTGSTYADSVKGRFTISRDNAKNTVYLQMNSLKPEDTAVYYCADEYRYYWYGTMNYWGQGTQVTVSS”, the “polyreactivity (PSR sort gate)” value is reported as “low polyreactivity”.
“QVQLQESGGGLVQAGGSLRLSCAASGSISSRDAMGWYRQAPGKEREFVATIASGTTTYYADSVKGSFTISRDNAENTVYLQTYRLKPEDTAVYYCAAPTIQIYPFYYWGQGTQVNVSS”: the “polyreactivity (PSR sort gate)” value is recorded as “high polyreactivity”.
In the case of “QVQLVESGGGLVQAGGSLRLSCAASGSIFVYYAMGWYRQSPGKERELVAAINWSGGSTYYADSVKGRFTISRDNAKKTVYLQMNSLKPEDSAVYYCNAYLSPYDYDYWGQGTQVTLSS” it was “low polyreactivity”; in that of “QVQLVESGGGLVQAGGRLRLSCAASGFTFSRNAMGWYRQAPGKERELVAAITASTSRTYYADSVKGRFTISRDNAKNTVYLQMTSLKQEDSAVYYCNAGRPGRGPYGYWGQGTQVTVSS”, “high polyreactivity”; in that of “QVQLVESGGGLVQAGGSLRLSCAASGSISYQNAMGWYRQATGKERELVAAISGDGDSMYYADSVKGRFTISRDNAKNTVYLQMNSLKPEDTAVYYCAAEPNVYFSVFVLFPSDYWGQGTQVTVSS”, “low polyreactivity”.
In the case of “QVQLVESGGGLFQAGGSLRLSSAASGSTFSYYVMGWYRQAPGKERELVAAIDYSGDSTYYADSVKGRFTLSRDNAKNTVYLQMNSLKPEDTAVYYCAADDYPWNRYEYWGQGTQVTVSS” it was “low polyreactivity”; in that of “QVQLVESGGGLVQAGGSLRLSCAASGSIFPGYAMGWYRQAPGKERELVATITWSASETYYADSVKGRFTISRDNAKYTVYLQMNSLKPEDTAVYYCNAEVYELFVVYSALDYWGQGTQVTVSS”, “low polyreactivity”; in that of “QVQLVESGGGLVQAGGSLRLSCAASGSTFFGNTMGWYRKAPGKERELVATITRRGGSTYYADSVKGRFTISRDNAKNTVYLQMNSLKPEDTAVYYCAKRGPYTKYDYWGQGTQVTVSS”, “low polyreactivity”.
Consider “QVQLVESGGGLVQAGGCLRVSCAASGFISGYYAMGGYSQAPGIERELVAAIDWIGGSTYYAESVKGRFTISRDNAKNTEYFQMNSLKPEDTAVYDCAASYKYGSSWGDGYWGQGTQVTVSS”, for which the “polyreactivity (PSR sort gate)” value is “low polyreactivity”.
In the case of “QVQLVESGGGLVQAGGSLRLSCAASGSIFGGNAMGWYRQPPGKERELVAAITDGGNTNYADSVKGRFTISRDNAKNTVYLQMNSMKPEDTAVFYCAARIPGTYGGRYGYDYWGQGTQVTVSS” it was “low polyreactivity”.
With “QVQLVESGGGLVQAGGRLRLSCAASGSTFQRYAMGWYRQAPGKDRELVAAISSTGGSTFYADSVKGRFTISRDTAKNTVYLHMNSLKPEDTAVYYCNKYRATNSARDYWGQGTQVTVSS”, the “polyreactivity (PSR sort gate)” value is “high polyreactivity”.
